Numbered stars: 1 amine (or outer) side, 2 acyl side, 3 side chain; on linkers, the order of the positions; unused ones are H or OH. Bridge positions count the residues as written; N and C are the ends. Side chains are listed from the residue outwards. Ends that are not written are not given here. * marks the point of attachment. C20 diacid = O=C(O)CCCCCCCCCCCCCCCCCCC(=O)*; γGlu = O=C(O)[C@H](CCC(=O)[*:2])N[*:1]; AEEA = NCCOCCOCC(=O)O
T1: human calcitonin receptor (human, UniProt P30988 25-474)
T1 construct: whole, on cells; Membranes of a BHK tk'ts 13 cell line stably transfected with the human calcitonin receptor; also called hCTR; hCT
T1 sequence (looked up): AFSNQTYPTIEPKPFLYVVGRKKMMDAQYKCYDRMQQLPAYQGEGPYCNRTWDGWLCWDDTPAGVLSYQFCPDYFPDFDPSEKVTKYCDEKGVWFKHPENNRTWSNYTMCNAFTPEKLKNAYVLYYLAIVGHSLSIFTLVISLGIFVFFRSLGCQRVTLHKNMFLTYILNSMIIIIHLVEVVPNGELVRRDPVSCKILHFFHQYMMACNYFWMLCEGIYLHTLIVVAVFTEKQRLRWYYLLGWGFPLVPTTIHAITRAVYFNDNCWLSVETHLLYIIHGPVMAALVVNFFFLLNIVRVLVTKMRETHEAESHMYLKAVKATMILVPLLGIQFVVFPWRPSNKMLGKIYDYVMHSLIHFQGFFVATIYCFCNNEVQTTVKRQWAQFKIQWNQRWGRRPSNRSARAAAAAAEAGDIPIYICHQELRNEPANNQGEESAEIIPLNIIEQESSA

T2: rat calcitonin receptor (rat, UniProt P32214 25-516)
T2 construct: whole, on cells; Membranes of BHK tk'ts 13 cells transiently transfected with the rat calcitonin receptor; also called rCTR; rat calcitonin (a) receptor
T2 sequence (looked up): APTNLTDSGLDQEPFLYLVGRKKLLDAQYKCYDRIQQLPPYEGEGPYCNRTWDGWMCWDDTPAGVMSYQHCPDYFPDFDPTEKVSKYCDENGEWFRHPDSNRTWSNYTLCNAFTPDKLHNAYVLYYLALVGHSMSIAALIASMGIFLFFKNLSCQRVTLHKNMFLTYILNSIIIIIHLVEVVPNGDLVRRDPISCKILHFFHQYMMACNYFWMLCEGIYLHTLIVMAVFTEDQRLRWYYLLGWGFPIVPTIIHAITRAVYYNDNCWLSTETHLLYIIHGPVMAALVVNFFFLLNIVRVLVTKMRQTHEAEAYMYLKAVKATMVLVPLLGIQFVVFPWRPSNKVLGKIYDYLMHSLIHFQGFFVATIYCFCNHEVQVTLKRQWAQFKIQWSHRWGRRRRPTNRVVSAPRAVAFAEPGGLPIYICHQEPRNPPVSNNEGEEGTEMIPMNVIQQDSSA

T3: rat amylin receptor (rat calcitonin receptor + rat RAMP 3) (rat, UniProt P32214 25-516; Q9JJ73 23-147)
T3 construct: whole, on cells; Membranes of BHK tk'ts 13 cells transiently transfected with the rat calcitonin receptor and rat RAMP 3; also called rAmylin-R; rat amylin 3(a) receptor
T3 sequence (looked up) 1: T2 sequence (looked up)
T3 sequence (looked up) 2: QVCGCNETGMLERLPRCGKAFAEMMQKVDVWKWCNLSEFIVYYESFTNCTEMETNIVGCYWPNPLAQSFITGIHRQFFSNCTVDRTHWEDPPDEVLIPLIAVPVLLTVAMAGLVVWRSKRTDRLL

B1: N^ε1-[2-[2-[2-[[(4S)-4-carboxy-4-(19-carboxynonadecanoylamino)butanoyl]amino]ethoxy]ethoxy]acetyl]-[Arg17,Pro21,Pro27,Pro31]-h-amylin (peptide)
peptide: K([AEEA-γGlu-C20 diacid])CNTATCATQRLANFLRHSSPNFGAIPSSTPVGSNTY-NH2
modifications: disulfide 2-7; N-terminus assumed
SMILES: CC[C@H](C)[C@H](NC(=O)[C@H](C)NC(=O)CNC(=O)[C@H](Cc1ccccc1)NC(=O)[C@H](CC(N)=O)NC(=O)[C@@H]1CCCN1C(=O)[C@H](CO)NC(=O)[C@H](CO)NC(=O)[C@H](Cc1c[nH]cn1)NC(=O)[C@H](CCCNC(=N)N)NC(=O)[C@H](CC(C)C)NC(=O)[C@H](Cc1ccccc1)NC(=O)[C@H](CC(N)=O)NC(=O)[C@H](C)NC(=O)[C@H](CC(C)C)NC(=O)[C@H](CCCNC(=N)N)NC(=O)[C@H](CCC(N)=O)NC(=O)[C@@H](NC(=O)[C@H](C)NC(=O)[C@@H]1CSSC[C@H](NC(=O)[C@@H](N)CCCCNC(=O)COCCOCCNC(=O)CC[C@H](NC(=O)CCCCCCCCCCCCCCCCCCC(=O)O)C(=O)O)C(=O)N[C@@H](CC(N)=O)C(=O)N[C@@H]([C@@H](C)O)C(=O)N[C@@H](C)C(=O)N[C@@H]([C@@H](C)O)C(=O)N1)[C@@H](C)O)C(=O)N1CCC[C@H]1C(=O)N[C@@H](CO)C(=O)N[C@@H](CO)C(=O)N[C@H](C(=O)N1CCC[C@H]1C(=O)N[C@H](C(=O)NCC(=O)N[C@@H](CO)C(=O)N[C@@H](CC(N)=O)C(=O)N[C@H](C(=O)N[C@@H](Cc1ccc(O)cc1)C(N)=O)[C@@H](C)O)C(C)C)[C@@H](C)O
notes: modifications are with respect to human amylin; also called compound 49
B2: N^ε1-[(4S)-4-carboxy-4-[[(4S)-4-carboxy-4-(19-carboxynonadecanoylamino)butanoyl]amino]butanoyl]-[Asp14,Arg17,Pro21,Pro26,Asp35]-h-amylin (peptide)
peptide: K([γGlu-γGlu-C20 diacid])CNTATCATQRLADFLRHSSPNFGAPLSSTNVGSDTY-NH2
modifications: disulfide 2-7; N-terminus assumed
SMILES: CC(C)C[C@H](NC(=O)[C@H](CCCNC(=N)N)NC(=O)[C@H](CCC(N)=O)NC(=O)[C@@H](NC(=O)[C@H](C)NC(=O)[C@@H]1CSSC[C@H](NC(=O)[C@@H](N)CCCCNC(=O)CC[C@H](NC(=O)CC[C@H](NC(=O)CCCCCCCCCCCCCCCCCCC(=O)O)C(=O)O)C(=O)O)C(=O)N[C@@H](CC(N)=O)C(=O)N[C@@H]([C@@H](C)O)C(=O)N[C@@H](C)C(=O)N[C@@H]([C@@H](C)O)C(=O)N1)[C@@H](C)O)C(=O)N[C@@H](C)C(=O)N[C@@H](CC(=O)O)C(=O)N[C@@H](Cc1ccccc1)C(=O)N[C@@H](CC(C)C)C(=O)N[C@@H](CCCNC(=N)N)C(=O)N[C@@H](Cc1c[nH]cn1)C(=O)N[C@@H](CO)C(=O)N[C@@H](CO)C(=O)N1CCC[C@H]1C(=O)N[C@@H](CC(N)=O)C(=O)N[C@@H](Cc1ccccc1)C(=O)NCC(=O)N[C@@H](C)C(=O)N1CCC[C@H]1C(=O)N[C@@H](CC(C)C)C(=O)N[C@@H](CO)C(=O)N[C@@H](CO)C(=O)N[C@H](C(=O)N[C@@H](CC(N)=O)C(=O)N[C@H](C(=O)NCC(=O)N[C@@H](CO)C(=O)N[C@@H](CC(=O)O)C(=O)N[C@H](C(=O)N[C@@H](Cc1ccc(O)cc1)C(N)=O)[C@@H](C)O)C(C)C)[C@@H](C)O
notes: modifications are with respect to human amylin; also called compound 1
B3: N^ε1-[(4S)-4-carboxy-4-[[(4S)-4-carboxy-4-(19-carboxynonadecanoylamino)butanoyl]amino]butanoyl]-[Asp14,Arg17,Pro21,Pro27,Asp35]-h-amylin (peptide)
peptide: K([γGlu-γGlu-C20 diacid])CNTATCATQRLADFLRHSSPNFGAIPSSTNVGSDTY-NH2
modifications: disulfide 2-7; N-terminus assumed
SMILES: CC[C@H](C)[C@H](NC(=O)[C@H](C)NC(=O)CNC(=O)[C@H](Cc1ccccc1)NC(=O)[C@H](CC(N)=O)NC(=O)[C@@H]1CCCN1C(=O)[C@H](CO)NC(=O)[C@H](CO)NC(=O)[C@H](Cc1c[nH]cn1)NC(=O)[C@H](CCCNC(=N)N)NC(=O)[C@H](CC(C)C)NC(=O)[C@H](Cc1ccccc1)NC(=O)[C@H](CC(=O)O)NC(=O)[C@H](C)NC(=O)[C@H](CC(C)C)NC(=O)[C@H](CCCNC(=N)N)NC(=O)[C@H](CCC(N)=O)NC(=O)[C@@H](NC(=O)[C@H](C)NC(=O)[C@@H]1CSSC[C@H](NC(=O)[C@@H](N)CCCCNC(=O)CC[C@H](NC(=O)CC[C@H](NC(=O)CCCCCCCCCCCCCCCCCCC(=O)O)C(=O)O)C(=O)O)C(=O)N[C@@H](CC(N)=O)C(=O)N[C@@H]([C@@H](C)O)C(=O)N[C@@H](C)C(=O)N[C@@H]([C@@H](C)O)C(=O)N1)[C@@H](C)O)C(=O)N1CCC[C@H]1C(=O)N[C@@H](CO)C(=O)N[C@@H](CO)C(=O)N[C@H](C(=O)N[C@@H](CC(N)=O)C(=O)N[C@H](C(=O)NCC(=O)N[C@@H](CO)C(=O)N[C@@H](CC(=O)O)C(=O)N[C@H](C(=O)N[C@@H](Cc1ccc(O)cc1)C(N)=O)[C@@H](C)O)C(C)C)[C@@H](C)O
notes: modifications are with respect to human amylin; also called compound 2
B4: N^ε1-[(4S)-4-carboxy-4-(19-carboxynonadecanoylamino)butanoyl]-[Arg17,Pro21,Pro27,Glu35]-h-amylin (peptide)
peptide: K([γGlu-C20 diacid])CNTATCATQRLANFLRHSSPNFGAIPSSTNVGSETY-NH2
modifications: disulfide 2-7; N-terminus assumed
SMILES: CC[C@H](C)[C@H](NC(=O)[C@H](C)NC(=O)CNC(=O)[C@H](Cc1ccccc1)NC(=O)[C@H](CC(N)=O)NC(=O)[C@@H]1CCCN1C(=O)[C@H](CO)NC(=O)[C@H](CO)NC(=O)[C@H](Cc1c[nH]cn1)NC(=O)[C@H](CCCNC(=N)N)NC(=O)[C@H](CC(C)C)NC(=O)[C@H](Cc1ccccc1)NC(=O)[C@H](CC(N)=O)NC(=O)[C@H](C)NC(=O)[C@H](CC(C)C)NC(=O)[C@H](CCCNC(=N)N)NC(=O)[C@H](CCC(N)=O)NC(=O)[C@@H](NC(=O)[C@H](C)NC(=O)[C@@H]1CSSC[C@H](NC(=O)[C@@H](N)CCCCNC(=O)CC[C@H](NC(=O)CCCCCCCCCCCCCCCCCCC(=O)O)C(=O)O)C(=O)N[C@@H](CC(N)=O)C(=O)N[C@@H]([C@@H](C)O)C(=O)N[C@@H](C)C(=O)N[C@@H]([C@@H](C)O)C(=O)N1)[C@@H](C)O)C(=O)N1CCC[C@H]1C(=O)N[C@@H](CO)C(=O)N[C@@H](CO)C(=O)N[C@H](C(=O)N[C@@H](CC(N)=O)C(=O)N[C@H](C(=O)NCC(=O)N[C@@H](CO)C(=O)N[C@@H](CCC(=O)O)C(=O)N[C@H](C(=O)N[C@@H](Cc1ccc(O)cc1)C(N)=O)[C@@H](C)O)C(C)C)[C@@H](C)O
notes: modifications are with respect to human amylin; also called compound 27
B5: N^ε1-[(4S)-4-carboxy-4-(19-carboxynonadecanoylamino)butanoyl]-[Arg17,Pro21,Pro27,Lys35]-h-amylin (peptide)
peptide: K([γGlu-C20 diacid])CNTATCATQRLANFLRHSSPNFGAIPSSTNVGSKTY-NH2
modifications: disulfide 2-7; N-terminus assumed
SMILES: CC[C@H](C)[C@H](NC(=O)[C@H](C)NC(=O)CNC(=O)[C@H](Cc1ccccc1)NC(=O)[C@H](CC(N)=O)NC(=O)[C@@H]1CCCN1C(=O)[C@H](CO)NC(=O)[C@H](CO)NC(=O)[C@H](Cc1c[nH]cn1)NC(=O)[C@H](CCCNC(=N)N)NC(=O)[C@H](CC(C)C)NC(=O)[C@H](Cc1ccccc1)NC(=O)[C@H](CC(N)=O)NC(=O)[C@H](C)NC(=O)[C@H](CC(C)C)NC(=O)[C@H](CCCNC(=N)N)NC(=O)[C@H](CCC(N)=O)NC(=O)[C@@H](NC(=O)[C@H](C)NC(=O)[C@@H]1CSSC[C@H](NC(=O)[C@@H](N)CCCCNC(=O)CC[C@H](NC(=O)CCCCCCCCCCCCCCCCCCC(=O)O)C(=O)O)C(=O)N[C@@H](CC(N)=O)C(=O)N[C@@H]([C@@H](C)O)C(=O)N[C@@H](C)C(=O)N[C@@H]([C@@H](C)O)C(=O)N1)[C@@H](C)O)C(=O)N1CCC[C@H]1C(=O)N[C@@H](CO)C(=O)N[C@@H](CO)C(=O)N[C@H](C(=O)N[C@@H](CC(N)=O)C(=O)N[C@H](C(=O)NCC(=O)N[C@@H](CO)C(=O)N[C@@H](CCCCN)C(=O)N[C@H](C(=O)N[C@@H](Cc1ccc(O)cc1)C(N)=O)[C@@H](C)O)C(C)C)[C@@H](C)O
notes: modifications are with respect to human amylin; also called compound 35

Target: T1, human calcitonin receptor
Assay: IC50 at hCTR divided by IC50 at hAmylin-R (reference)
Summary of the method: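 Membranes (35 ng/μL final) + SPA beads, 50 mM Hepes pH 7.4 buffer with 1 mM CaCl2, 5 mM MgCl₂, 0.1% OA, 0.02% Tween20; 120 min, 25° C, shaking; centrifuged, counted; IC₅₀ by one-site binding competition.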

Ratio hCT/hAmylin binding	Binder
10.8	B1
27.6	B2
47.5	B3
41.3	B4
50.3	B5

Target: T2, rat calcitonin receptor
Assay: IC50 at rCTR divided by IC50 at rAmylin-R (reference)

Ratio rCT/rAmylin binding	Binder
47.7	B1
104	B2
366	B3
147	B4
65.1	B5

Target: T3, rat amylin receptor (rat calcitonin …)
Assay: SPA competition vs 125I-rat amylin, membranes with rat CTR + rat RAMP3 (Assay VI)

IC50 [nM]	Binder
1.08	B1
1.3	B2
0.295	B3
0.614	B4
0.948	B5

Target: T2, rat calcitonin receptor
Assay: SPA competition vs 125I-calcitonin, membranes with rat CTR (Assay VIII)

IC50 [nM]	Binder
51.4	B1
135	B2
108	B3
90.2	B4
61.7	B5

— US20140087995A1 (published 2014)
